Reference: paper PMC5316841

Target: Fbxw7 (UniProt Q969H0)
Assay: anti-FLAG co-IP, HSF1 immunoblot
Conditions: reference: wild type HSF1; sites S303

HSF1 (from UniProt Q00613) HSF1 S303A
binding against the reference: weaker
